Laboratory results reported in patent US20040038876A1.

Target: Ptc-1
Test: Ptc-1 binding assay, format not described

| Ptc binding [nM] | Substance |
| --- | --- |
| 1 | Shh C1II/A169C, 5 K PEG (from UniProt Q15465 25-197) (ligand) |
| 0.4 | Shh C1II/A169C, NEM-modified (from UniProt Q15465 25-197) (ligand) |
| 1.1 | Shh C1II/A169C, unmodified (from UniProt Q15465 25-197) (ligand) |
| 32 | mutant 17 (Shh C1II/A169C + N27C), 5 K PEG (from UniProt Q15465 25-197) (ligand) |
| 0.3 | mutant 17 (Shh C1II/A169C + N27C), NEM-modified (from UniProt Q15465 25-197) (ligand) |
| 1.3 | mutant 17 (Shh C1II/A169C + N27C), unmodified (from UniProt Q15465 25-197) (ligand) |
| 2 | mutant 18 (Shh C1II/A169C + N46C), 5 K PEG (from UniProt Q15465 25-197) (ligand) |
| 2 | mutant 18 (Shh C1II/A169C + N46C), NEM-modified (from UniProt Q15465 25-197) (ligand) |
| 3 | mutant 19 (Shh C1II/A169C + Y57C), 5 K PEG (from UniProt Q15465 25-197) (ligand) |
| 1 | mutant 19 (Shh C1II/A169C + Y57C), NEM-modified (from UniProt Q15465 25-197) (ligand) |
| 3 | mutant 20 (Shh C1II/A169C + N68C), 5 K PEG (from UniProt Q15465 25-197) (ligand) |
| 2 | mutant 20 (Shh C1II/A169C + N68C), NEM-modified (from UniProt Q15465 25-197) (ligand) |
| 3 | mutant 20 (Shh C1II/A169C + N68C), unmodified (from UniProt Q15465 25-197) (ligand) |
| 35 | mutant 21 (Shh C1II/A169C + N92C), 5 K PEG (from UniProt Q15465 25-197) (ligand) |
| 0.3 | mutant 21 (Shh C1II/A169C + N92C), NEM-modified (from UniProt Q15465 25-197) (ligand) |
| 85 | mutant 22 (Shh C1II/A169C + S154C), 5 K PEG (from UniProt Q15465 25-197) (ligand) |
| 8.3 | mutant 22 (Shh C1II/A169C + S154C), NEM-modified (from UniProt Q15465 25-197) (ligand) |
| 3.9 | mutant 22 (Shh C1II/A169C + S154C), unmodified (from UniProt Q15465 25-197) (ligand) |
| 8 | mutant 24 (Shh C1II/A169C + S112C), 5 K PEG (from UniProt Q15465 25-197) (ligand) |
| 0.6 | mutant 24 (Shh C1II/A169C + S112C), NEM-modified (from UniProt Q15465 25-197) (ligand) |
| 33 | mutant 25 (Shh C1II/A169C + S133C), 5 K PEG (from UniProt Q15465 25-197) (ligand) |
| 0.4 | mutant 25 (Shh C1II/A169C + S133C), NEM-modified (from UniProt Q15465 25-197) (ligand) |
| 3.7 | mutant 25 (Shh C1II/A169C + S133C), unmodified (from UniProt Q15465 25-197) (ligand) |
| 12 | mutant 44 (Shh C1II/A169C + E113C), 5 K PEG (from UniProt Q15465 25-197) (ligand) |
| 0.5 | mutant 44 (Shh C1II/A169C + E113C), NEM-modified (from UniProt Q15465 25-197) (ligand) |
| 2.3 | mutant 44 (Shh C1II/A169C + E113C), unmodified (from UniProt Q15465 25-197) (ligand) |
| 42 | wild type Shh, 5 K PEG (from UniProt Q15465 24-197) (ligand) |
| 1.4 | wild type Shh, NEM-modified (from UniProt Q15465 24-197) (ligand) |
| 2.4 | wild type Shh, unmodified (from UniProt Q15465 24-197) (ligand) |
